# Where “and” joins values, the source holds several entries; their conditions need not be identical. Equal values may be shown once.
# B1: S247A, Q72SM7 (parent)
# chain: MKKLSILAISVALFASITACGAFGGLPSLKSSFVLSEDTIPGTNETVKTLLPYGSVINYYGYVKPGQAPDGLVDGNKKAYYLYVWIPAVIAEMGVRMISPTGEIGEPGDGDLVSDAFKAATPEEKSMPHWFDTWIRVERMSAIMPDQIAKAAKAKPVQKLDDDDDGDDTYKEERHNKYNSLTRIKIPNPPKSFDDLKNIDTKKLLVRGLYRISFTTYKPGEVKGSFVASVGLLFPPGIPGVSPLIHSNPEELQKQAIAAEESLKKAASDATK
# Variants of: B1
# Details: Leptospira interrogans serogroup Icterohaemorrhagiae serovar copenhageni (strain Fiocruz L1-130); pH 8; Thermal; CD; Tris-HCl; KCl; structure 3FRL; whole UniProt chain shown
Variant,"change of melting temperature, mutant - wild type (higher = more stable)",Tm
MKKLSILAISVALFASITACGAFGGLPSLKSSFVLSEDTIPGTNETVKTLLPYGSVINYYGYVKPGQAPDGLVDGNKKAYYLYVWIPAVIAEMGVRMISPTGEIGEPGDGDLVSDAFKAATPEEKSMPHWFDTWIRVERMSAIMPDQIAKAAKAKPVQKLDDDDDGDDTYKEERHNKYNSLTRIKIPNPPKSFDDLKNIDTKKLLVRGLYRISFTTYKPGEVKGSFVASVGLLFPPGIPGVSPLIHANPEELQKQAIAAEESLKKAASDATK [S247A],0 °C and -1 °C,–
MKKLSILAISVALFASITACGAFGGLPSLKSSFVLSEDTIPGTNETVKTLLPYGSVINYYGYVKPGQAPDGLVDGNKKAYYLYVWIPAVIAEMGVRMISPTGEIGEPGDGDLVSDAFKAATPEEKSMPHWFDTWIRVERMSAIMPDQIAKAAKAKPVQKLDDAAAAAATYKEERHNKYNSLTRIKIPNPPKSFDDLKNIDTKKLLVRGLYRISFTTYKPGEVKGSFVASVGLLFPPGIPGVSPLIHSNPEELQKQAIAAEESLKKAASDATK [D163A D164A D165A G166A D167A D168A],–,51 °C and 52 °C
MKKLSILAISVALFASITACGAFGGLPSLKSSFVLSEDTIPGTNETVKTLLPYGSVINYYGYVKPGAAPDGLVDGNKKAYYLYVWIPAVIAEMGVRMISPTGEIGEPGDGDLVSDAFKAATPEEKSMPHWFDTWIRVERMSAIMPDQIAKAAKAKPVQKLDDDDDGDDTYKEERHNKYNSLTRIKIPNPPKSFDDLKNIDTKKLLVRGLYRISFTTYKPGEVKGSFVASVGLLFPPGIPGVSPLIHSNPEELQKQAIAAEESLKKAASDATK [Q67A],0 °C,–

# From FireProtDB (doi:10.1074/jbc.m111.277210)
